Reference: article PMC3358930 (ACS synthetic biology, 2011)

T1: TMR-CGYPKHREMAVDSP (Drosophila)
T1 peptide: Ac-C(TMR)GYPKHREMAVDSP-NH2

T2: D. melanogaster Par-6 PDZ domain (residues 156-255) (D. melanogaster, UniProt O97111 156-255)
T2 sequence (looked up): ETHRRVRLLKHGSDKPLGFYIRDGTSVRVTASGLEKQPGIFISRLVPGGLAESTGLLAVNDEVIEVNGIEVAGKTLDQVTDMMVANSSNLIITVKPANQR

B1: PDZ-PxxP-COOH synthetic regulatory system without decoy ([Par-6 156-255]-PPPALPPKHREMAAD) (other, D. melanogaster)
chain: ETHRRVRLLKHGSDKPLGFYIRDGTSVRVTASGLEKQPGIFISRLVPGGLAESTGLLAVNDEVIEVNGIEVAGKTLDQVTDMMVANSSNLIITVKPANQRLPPPALPPKHREMAAD

Assays:
[1] = biological target: T1, TMR-CGYPKHREMAVDSP; assay: fluorescence polarisation
[2] = biological target: T2, D. melanogaster Par-6 PDZ domain …; assay: fluorescence polarisation

Row | Binder | Kd [1] [µM] | Kd [2] [µM]
1 | B1 | 48 | 
2 | Ac-C(TMR)GYPKHREMAAD-NH2 [TMR-CGYPKHREMAAD] |  | 15
